# B1: ERK4 (wild-type), GAL4 activation domain fusion [not stated] / DUSP2 (wild-type), GAL4 DNA-binding domain fusion [human] (parent complex)
# chain 1: MAEKGDCIASVYGYDLGGRFVDFQPLGFGVNGLVLSAVDSRACRKVAVKKIALSDARSMKHALREIKIIRRLDHDNIVKVYEVLGPKGTDLQGELFKFSVAYIVQEYMETDLARLLEQGTLAEEHAKLFMYQLLRGLKYIHSANVLHRDLKPANIFISTEDLVLKIGDFGLARIVDQHYSHKGYLSEGLVTKWYRSPRLLLSPNNYTKAIDMWAAGCILAEMLTGRMLFAGAHELEQMQLILETIPVIREEDKDELLRVMPSFVSSTWEVKRPLRKLLPEVNSEAIDFLEKILTFNPMDRLTAEMGLQHPYMSPYSCPEDEPTSQHPFRIEDEIDDIVLMAANQSQLSNWDTCSSRYPVSLSSDLEWRPDRCQDASEVQRDPRAGSAPLAEDVQVDPRKDSHSSSERFLEQSHSSMERAFEADYGRSCDYKVGSPSYLDKLLWRDNKPHHYSEPKLILDLSHWKQAAGAPPTATGLADTGAREDEPASLFLEIAQWVKSTQGGPEHASPPADDPERRLSASPPGRPAPVDGGASPQFDLDVFISRALKLCTKPEDLPDNKLGDLNGACIPEHPGDLVQTEAFSKERW
# chain 2: MGLEAARELECAALGTLLRDPREAERTLLLDCRPFLAFCRRHVRAARPVPWNALLRRRARGPPAAVLACLLPDRALRTRLVRGELARAVVLDEGSASVAELRPDSPAHVLLAALLHETRAGPTAVYFLRGGFDGFQGCCPDLCSEAPAPALPPTGDKTSRSDSRAPVYDQGGPVEILPYLFLGSCSHSSDLQGLQACGITAVLNVSASCPNHFEGLFRYKSIPVEDNQMVEISAWFQEAIGFIDWVKNSGGRVLVHCQAGISRSATICLAYLMQSRRVRLDEAFDFVKQRRGVISPNFSFMGQLLQFETQVLCH
# Variants of: B1
# Assay: yeast two-hybrid, β-galactosidase reporter assay; triplicate; read off a plot
row,Variant,response
1,chain 1 D320N,~16

# Reference: paper PMC5333157 (2017)
